Values of other authors as cited in paper PMC5729051.

Target: amyloid-beta oligomer (Homo sapiens) (UniProt P05067)

Cellular Prion Protein (PrPC) (from UniProt P04156)
Kd: 400 pM
